Patent US5091312A

Substrate: CNCC(=O)O
Assay: purified protein, by the assay type
Details: other: 37° C., pH 8.0

B1: sarcosine oxidase (E.C.1.5.3.1) from Streptomyces sp. KB210-8SY (Streptomyces sp. KB210-8SY) (protein)
chain: SPTYDVIVIGLGGMGSAAAHHLSARGARVLGLEKFGPVHNRGSSHGGSRITRQSYFEDPAYVPLLLRAYELYEELERATGRNVATLCGGVMAGPPDSRTVSGSLRSATEWDLAHEMLDAKEIRRRFPTLAPDDDEVALFEAKAGLLRPENMVAAHLQLATRQGAELRFEEPVLRWEPYRDGVRVHTGENTYTAGQLVICPGAWAPQLLADIGVPITVERQIMYWFQPKGGTGPFVPERHPVYIWEDADGVQVYGFPAIDGPEKGAKVAFFRKGQHTTPETIDRTVHAHEVRAMADHMSALIPDLPGTFLKAATCMYSNTPDEHFVIARHPAHPESVTVACGFSGHGFKFVPVVGEILADLALTGATAHPIGLFDPARLTAPAARGVQP
Km: 910 µM
